In the DeepSol protein solubility set:

Assay: soluble on expression in E. coli; label from the status in PepcDB or PDB records

Sequence | soluble on expression in E. coli
GMTLPPYHTPLPAETLRALSIPAPWTFGLADRVRFGELDAIGHVNHTAYLRWYESFRLPFLKARHVTDYGPTSPRLVLKQVHCTYLAEMGMGEDYVITGRVSNFRTTSFTMEFACWRLGDAVECTSEGSAVVVLLNRDGSGRYPIPEAGRASFVTEDGVLAAG | soluble
MAHHHHHHMNAVKLPEEWETLCSTNDAEVIHECINGVFRRLLANLLLDFNNPKLRQVKKDNKALHRLTDSLPAGFIEFLFSSIGFVEHDDVFIFEGSPESLKHGDAVLSYIEDSFGKERLQAAECELHRLRNLAIKKAENGLAPREMMTATAPLPRTQPLPQEEDAKRQAQHSGTEKDVAEEHAVKETVRKTLLNTGRVRNGFFEARDFSVRIMQHGRVYACTEKCPDHCVEVHWHLLTGRNILYSHLAHLSADGTRLLHLGPEHGYQYNSLPGSANFGKMIHFSEKLMDENGRLVHIKNDDKPVTACIYCGRAFAQLLL | not soluble
MSLNYLSGQAANPRGIIGEITTKIWSSYFEDLSKWTINNTEMAGVTKVLDVGYGGGSNVKNLVNLDQNLTIYGIDISKESYKTASALNKKAISDGKVKLTVADVADMDYREESFDLVYAIQTHMYWDNLQKGFEEIYRVMSQEGVLILSSEKDKIDYHMDEYKTTASLTALLKEIGFREVVEKEKGNWVLYTVKKEGHHHHHH | soluble
MSLGYNFHLSDMQAQLEQQAAEEETLKQQFSTKAFQAANLEAYKAQMKEMEESFGALLRQLPSDTEVPGLLEDITRTGLGSGLEFEEIKLLPEVAQQFYIELPIQISVVGGYHDLATFVSGVSSLPRIVTLHDFEIKPVAPGSTSKLRMSILAKTYRYNDKGLKKEGHHHHHH | soluble
MSVVKSIELVLPEDRIYLAGSSIKGQVILTLNSTLVDPIVKVELVGRGYVEWSEEAGASCDYSRNVICNNKADYVHKTKTFPVEDNWLSAGSHTFDFHFNLPPRLPSTFTSKFGHVFYFVQASCMGREHILAKKRMYLLVQGTSTFHKETPFQNPLFVEAEEKVSYNCCRQGTVCLQIQMERNTFTPGEKVVFTTEINNQTSKCIKTVVFALYAHIQYEGFTPSAERRSRLDSSELLRQEANTPVTRFNTTKVVSTFNLPLLLSVSSSTQDGEIMHTRYELVTTVHLPWSLTSLKAKVPIIITSASVDSAICQLSEDGVLPVNPDHQN | soluble
AHHHHHHGSRVLVTTWGNPFQWEPITYEYRGIKVKSRNTLPILVKTLEPERILILVADTMANYYDSGKNKPEIEEKSFSSYSEVVEDTKERILWHIKEEVIEELREEDPELAKKIENMLKDERITIEVLPGVGVFGNITVEGEMLDFYYYATYKLAEWLPVQNNLEVYLDLTHGINFMPTFTYRALRNLLGLLAYLYNVKFEIVNSEPYPLGVSQEIREDTILHIREIGEGVVRPRPQYSPVEGKLYWNAFISSVANGFPLVFASFYPNIRDVEDYLNKKLEEFLVGIEVGEREDGKPYVKREKALDRSFKNASKLYYALRVFNTKFQNYPKKEVPIEEIMEISKIFESLPRIGIILERQVEWLRNLVYGRLWYENGEQKIKKGLLEIIKDKKDKRKEAEALKKGKTISLAEAAKLTRIFSPSGERIETIESPNVVRNFIAHSGFEYNIVYVKYDRLSDRLYFFYKDKEKAANLAYEALLYRGEKE | soluble
MSVLIPLVTVDGRDSVLLTKRSIHLRSHRGEVCFPGGRMDPGETTTETALRETFEEIGVNAESVEIWGHLKSVIRRQADFNVTPIVGYISDERVLENLVVNSDEVQAVFTIPIDELIKKAGLTKFQSKRMKYTLPSFDSTEFKVHHNAPNEYLHSTQRVWGLSGVMLHQALTLLNPDVYKHDLIVKFF | not soluble
MGSDKIHHHHHHLYNQPEVALEKYELTVSRIIKGRGAYICDTGIGQKLLVPYRGHEQRACTLRDTLAFIQRNGMDVEQISQTKEQCIISRDNCEDAYILKDYRAGRECSTDSIDDMRGGSRALAQLHNILEKYPLPSDIEVESLYEKAQRKCAQIVKLKNYILRRSKTNAFEHLFYECYERFLEQGQKSAEILCELENSKTSVPIYCHGAFNQHNVVYTQSGRWLPVNFETMHPGYPETDLAEYMRKMLEKNHWDTAVADAILDSYCSVRSLDDTSMRLLQALLLFPEKFCKLCNHYSNSRKSWVCDRDVDKLAQLIQLSGEREEYLHALQAIV | not soluble
MVNDLTPHFEDVQAHYDLSDDFFRLFLDPTQTYSCAHFEREDMTLEEAQIAKIDLALGKLGLQPGMTLLDIGCGWGATMRRAIAQYDVNVVGLTLSKNQAAHVQKSFDEMDTPRDRRVLLAGWEQFNEPVDRIVSIGAFEHFGHDRHADFFARAHKILPPDGVLLLHTITGLTRQQMVDHGLPLTLWLARFLKFIATEIFPGGQPPTIEMVEEQSAKTGFTLTRRQSLQPHYARTLDLWAEALQEHKSEAIAIQSEEVYERYMKYLTGCAKLFRVGYIDVNQFTLAK | soluble
MSNNEIVFVTGNANKLKEVQSILTQEVDNNNKTIHLINEALDLEELQDTDLNAIALAKGKQAVAALGKGKPVFVEDTALRFDEFNGLPGAYIKWFLKSMGLEKIVKMLEPFENKNAEAVTTICFADSRGEYHFFQGITRGKIVPSRGPTTFGWDSIFEPFDSHGLTYAEMSKDAKNAISHRGKAFAQFKEYLYQNDF | not soluble
KAPLDEIADDSFWSDETLVKYYVNDLYSEISVDGLQLQENRSDNSVSAQRDKYRASWFKFNYDMVSASDPQDDDVWEDYYVKVRKCNRFFERIGTSTIEESEKSRLTGEVHFLRAMFYFEMVKRYGGVILLDKVLTMEDNWEIPRSSEKECYDFILEDLKKATEMLPASYGSREKGRATKGAAYALKSRVELYDKRYEDVIKSCAEVYKLGYELVDGTTPEKYRSIWWTTNKDNKEIIFDVQYKSPDVYNNMMVCNMVTYINDKYGDRGWGGLGPTQELIDAFEMADGTPATQYSQAPADQVFDINTCGIYEGREPRFYANIVFHGSQIFFNADKGAVTVDRYLMDTPDKGDGSLTGYNVWKWIDYDNYNYPYAGAGSPDFSTNWIILRYAEIYLNDAEARLETGDVEGARKAVNMIRQRVGLPDLTESDPEKLRELIRKERRIEFAFEEQRFYDVRRWKIGPETQTTLHGVRFVSPTEFKVTKTDIRTWNDRLYLTPVPHDEIVRSSVLKQNLGY | soluble
NDSLVLFSTDLKLLWANRSAEHLYGDYVEQLVGQEFTSLKGARGIPSDAIAVRASLGSGEPCYERVSAADGRIWDMKYFPVRGED | not soluble
MKALTLKVFYENSDPNKSSSKQAKYLAIADALRKAIRERQIAPTEALPSARKLAQQLSVNRHTIMAALAELVAQGWVEVRERSGYRVVENLPIQGSRTINKVAKTPQSFDWKFRVKQTFAVTPKVKASEYPYNFSGGQPDIRKFPFDEFKSHFSQTCQRPKIDDLSYGDSRGEAELIEEIATYLRRVRSITDKELMICNGSQEALYMISQLLLQPGDKVAVEQLGYPPAWAAFERTGATLIAVKQDERGINPEHLAQVFAKGKVKLLYLTPLHQYPTTVSLDISRRMQIYQLAVQYGVAIVEDDYDHEFHYDSQPIAPMAADDPAGLVIYISTFSKLMFGGARIGYVVANNALIEQVAAYKMVMNHKCNVLVQQAVAKWMQQGGFEAHLRRMTRLYQKRRDFMVQQLRSFQDKGLPIHFEVPAGGMAIWLDTGKSIIGLKEKLLPQQVYLQTEVEFSRFNELPDDLPRTKYRFIRLGFAAMNEAEVTQGLDIVMNTLYGLVSE | not soluble
MGSDKIHHHHHHMKPGSHLFSPISFQESTPLYRQLYERVRRAISVGLLFPGDRLPSARMLAKELGVARGTIEQAYSLLIAEGYLQAHGQAGTRVNPDLPSASLPVAEAPVSPSAPDAEQQILWRPSQLLPFQMGVPAFDAFPRKLWARLGARYLRSMQLPDLDYPAPYGLPALRNAIASYLQVSRGIDCTANQVFITSGWRANLQLATLALLKSGQRVWVEDPGYPPTRQLLSQSGLCPIAVSVDREGINVERGIAQANDASMAVVTPAHQSPLSMSLSLPRRQALLQWATAQNAWIMEDDYDGEYRYISRPLPALASLDRHGRVLYAGTFSKVLFPGIRLAYLVVPQSQVAAFEHINRIFFASASPTMTQSIVASFITEGHFARHIQRTRRLYAERRTATITVLQGILGNRIRIDSQPGGMHLVLRLPDKFSDRQLADRLLAQGIAVQPLSRWAVSGSGDNALLVSFTNCTTVMESERLAALILAECEQHGNSLA | not soluble
MQILEPQQFATWNEPIEMLYACHSKVKRFCRQLSILPDYLEKHGYTQAVLNDVEQILSYFNRAAPLHHDDEELDFFPQLVKVAPQTQTSIDELEKQHEYLHENWNALSVQLEELISEQRQDIDKHLIERFIQGYDRHIALEEPLFEMGRECLSADILTEMGKHMSARRQVKE | not soluble
